From paper PMC9706529, “Identification of a S-(2-succino)cysteine breakdown pathway that uses a novel S-(2-succino) lyase” (The Journal of Biological Chemistry, 2022)

Columns and labels:
E. italicus 2SL (Ei) = biological target: T1, E. italicus 2SL (Ei) (Enterococcus italicus, UniProt E6LDH5); test: HPLC, […] nm, 2SNAC synthesis; format: biochemical; conditions: 50 mM Tris-HCl pH 8.0, 21 °C, 4.0 mM NAC; synthesis direction; read-out: Kinetic parameter / Km
T1 construct: gene purB; full-length, N-terminal hexahistidine tag (pET28b), expressed in E. coli BL21-(DE3)-RIPL, Ni-NTA purified; tag removal not mentioned
T1 sequence (E6LDH5 1-455): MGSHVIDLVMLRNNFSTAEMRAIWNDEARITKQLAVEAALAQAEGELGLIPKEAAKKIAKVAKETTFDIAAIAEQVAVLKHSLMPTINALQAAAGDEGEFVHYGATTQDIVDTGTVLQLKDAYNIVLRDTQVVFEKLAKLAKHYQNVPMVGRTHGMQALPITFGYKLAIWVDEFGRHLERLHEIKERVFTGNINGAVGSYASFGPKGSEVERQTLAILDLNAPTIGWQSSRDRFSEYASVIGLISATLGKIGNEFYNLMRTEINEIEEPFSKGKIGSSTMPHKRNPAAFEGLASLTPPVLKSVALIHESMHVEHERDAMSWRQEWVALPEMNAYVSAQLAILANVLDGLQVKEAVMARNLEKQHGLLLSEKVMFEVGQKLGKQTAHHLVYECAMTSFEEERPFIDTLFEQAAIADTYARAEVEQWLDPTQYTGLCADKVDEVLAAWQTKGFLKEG

D. dadantii 2SL (Dd) = biological target: T2, D. dadantii 2SL (Dd) (Dickeya dadantii, UniProt E0SKP1); test: HPLC, […] nm, 2SNAC synthesis; format: biochemical; conditions: 50 mM Tris-HCl pH 8.0, 21 °C, 4.0 mM NAC; synthesis direction; read-out: Kinetic parameter / Km
T2 construct: gene Dda3937_00284; full-length, N-terminal hexahistidine tag (pET28b), expressed in E. coli BL21-(DE3)-RIPL, Ni-NTA purified; tag removal not mentioned
T2 sequence (E0SKP1 1-454): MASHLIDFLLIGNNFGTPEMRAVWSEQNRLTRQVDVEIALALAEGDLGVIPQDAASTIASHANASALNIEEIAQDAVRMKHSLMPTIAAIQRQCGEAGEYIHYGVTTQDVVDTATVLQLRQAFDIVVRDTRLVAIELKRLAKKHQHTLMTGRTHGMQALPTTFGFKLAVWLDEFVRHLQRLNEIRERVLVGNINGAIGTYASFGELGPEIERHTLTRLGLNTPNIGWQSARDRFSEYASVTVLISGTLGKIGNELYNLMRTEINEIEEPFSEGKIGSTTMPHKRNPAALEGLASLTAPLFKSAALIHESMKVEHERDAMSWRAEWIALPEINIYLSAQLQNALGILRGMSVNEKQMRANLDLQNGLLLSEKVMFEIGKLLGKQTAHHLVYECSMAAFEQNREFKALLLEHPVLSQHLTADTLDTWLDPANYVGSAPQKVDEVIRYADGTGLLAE

purified protein [1] = substrate: N[C@@H](CSC(CC(=O)O)C(=O)O)C(=O)O; test: purified protein; format: biochemical, Enterococcus italicus; conditions: 100 mM Tris-HCl pH 8.0, 21 °C, 40 mM glutamate, 2 mM NAD+, breakdown direction
purified protein [2] = substrate: CC(=O)N[C@@H](CS)C(=O)O; test: purified protein; format: biochemical, Enterococcus italicus; conditions: 50 mM Tris-HCl pH 8.0, 21 °C, 30 mM fumarate, synthesis direction
purified protein [3] = substrate: CC(=O)N[C@@H](CSC(CC(=O)O)C(=O)O)C(=O)O; test: purified protein; format: biochemical, Enterococcus italicus; conditions: 100 mM Tris-HCl pH 8.0, 21 °C, 40 mM glutamate, 2 mM NAD+, breakdown direction
purified protein [4] = substrate: N[C@@H](CS)C(=O)O; test: purified protein; format: biochemical, Enterococcus italicus; conditions: 50 mM Tris-HCl pH 8.0, 21 °C, 30 mM fumarate, synthesis direction
purified protein [5] = substrate: N[C@@H](CSC(CC(=O)O)C(=O)O)C(=O)O; test: purified protein; format: biochemical, Dickeya dadantii; conditions: 100 mM Tris-HCl pH 8.0, 21 °C, 40 mM glutamate, 2 mM NAD+, breakdown direction
purified protein [6] = substrate: CC(=O)N[C@@H](CS)C(=O)O; test: purified protein; format: biochemical, Dickeya dadantii; conditions: 50 mM Tris-HCl pH 8.0, 21 °C, 30 mM fumarate, synthesis direction
purified protein [7] = substrate: CC(=O)N[C@@H](CSC(CC(=O)O)C(=O)O)C(=O)O; test: purified protein; format: biochemical, Dickeya dadantii; conditions: 100 mM Tris-HCl pH 8.0, 21 °C, 40 mM glutamate, 2 mM NAD+, breakdown direction
purified protein [8] = substrate: N[C@@H](CS)C(=O)O; test: purified protein; format: biochemical, Dickeya dadantii; conditions: 50 mM Tris-HCl pH 8.0, 21 °C, 30 mM fumarate, synthesis direction

Question: `O=C(O)/C=C/C(=O)O` [fumarate] was tested. Which Km (E. italicus 2SL (Ei)) did it give?
Answer: The Km was 230 ± 20 µM.

Question: And the Km (D. dadantii 2SL (Dd))?
Answer: Its Km is 3240 ± 300 µM.

B1: E. italicus 2SL (Ei) (Enterococcus italicus DSM 15952) (protein)
chain: MGSHVIDLVMLRNNFSTAEMRAIWNDEARITKQLAVEAALAQAEGELGLIPKEAAKKIAKVAKETTFDIAAIAEQVAVLKHSLMPTINALQAAAGDEGEFVHYGATTQDIVDTGTVLQLKDAYNIVLRDTQVVFEKLAKLAKHYQNVPMVGRTHGMQALPITFGYKLAIWVDEFGRHLERLHEIKERVFTGNINGAVGSYASFGPKGSEVERQTLAILDLNAPTIGWQSSRDRFSEYASVIGLISATLGKIGNEFYNLMRTEINEIEEPFSKGKIGSSTMPHKRNPAAFEGLASLTPPVLKSVALIHESMHVEHERDAMSWRQEWVALPEMNAYVSAQLAILANVLDGLQVKEAVMARNLEKQHGLLLSEKVMFEVGQKLGKQTAHHLVYECAMTSFEEERPFIDTLFEQAAIADTYARAEVEQWLDPTQYTGLCADKVDEVLAAWQTKGFLKEG
notes: full-length, N-terminal hexahistidine tag (pET28b), expressed in E. coli BL21-(DE3)-RIPL, Ni-NTA purified; tag removal not mentioned
Question: B1 was tested. Which Km (purified protein [1]) did it give?
Answer: The Km was 10700 ± 2300 µM.

Question: And the Vmax (purified protein [1])?
Answer: The Vmax was 0.058 µmol/min/mg.

Question: What about the kcat (purified protein [1]) of the same molecule?
Answer: The kcat was 0.051 ± 0.004 s⁻¹.

Question: And the kcat/Km (purified protein [1])?
Answer: The kcat/Km was 4.7 M⁻¹ s⁻¹.

Question: And the Km (purified protein [2])?
Answer: The Km was 390 ± 30 µM.

Question: What about the Vmax (purified protein [2]) of the same molecule?
Answer: Its Vmax is 105 µmol/min/mg.

Question: What about the kcat (purified protein [2]) of the same molecule?
Answer: The kcat was 92.1 ± 7.1 s⁻¹.

Question: What about the kcat/Km (purified protein [2]) of the same molecule?
Answer: The kcat/Km was 236000 M⁻¹ s⁻¹.

Question: What about the Km (purified protein [3]) of the same molecule?
Answer: The Km was 1400 ± 100 µM.

Question: And the Vmax (purified protein [3])?
Answer: The Vmax was 2.42 µmol/min/mg.

Question: And the kcat (purified protein [3])?
Answer: The kcat was 2.12 ± 0.21 s⁻¹.

Question: And the kcat/Km (purified protein [3])?
Answer: Its kcat/Km is 1510 M⁻¹ s⁻¹.

Question: What about the Km (purified protein [4]) of the same molecule?
Answer: The Km was 17800 ± 3600 µM.

Question: And the Vmax (purified protein [4])?
Answer: The Vmax was 11.9 µmol/min/mg.

Question: What about the kcat (purified protein [4]) of the same molecule?
Answer: Its kcat is 10.4 ± 1.5 s⁻¹.

Question: And the kcat/Km (purified protein [4])?
Answer: The kcat/Km was 580 M⁻¹ s⁻¹.

B2: D. dadantii 2SL (Dd) (Dickeya dadantii 3937) (protein)
chain: MASHLIDFLLIGNNFGTPEMRAVWSEQNRLTRQVDVEIALALAEGDLGVIPQDAASTIASHANASALNIEEIAQDAVRMKHSLMPTIAAIQRQCGEAGEYIHYGVTTQDVVDTATVLQLRQAFDIVVRDTRLVAIELKRLAKKHQHTLMTGRTHGMQALPTTFGFKLAVWLDEFVRHLQRLNEIRERVLVGNINGAIGTYASFGELGPEIERHTLTRLGLNTPNIGWQSARDRFSEYASVTVLISGTLGKIGNELYNLMRTEINEIEEPFSEGKIGSTTMPHKRNPAALEGLASLTAPLFKSAALIHESMKVEHERDAMSWRAEWIALPEINIYLSAQLQNALGILRGMSVNEKQMRANLDLQNGLLLSEKVMFEIGKLLGKQTAHHLVYECSMAAFEQNREFKALLLEHPVLSQHLTADTLDTWLDPANYVGSAPQKVDEVIRYADGTGLLAE
notes: as for B1
Question: For B2, which Km (purified protein [5]) is on record?
Answer: Its Km is 12300 ± 1100 µM.

Question: What about the Vmax (purified protein [5]) of the same molecule?
Answer: Its Vmax is 0.069 µmol/min/mg.

Question: And the kcat (purified protein [5])?
Answer: The kcat was 0.06 ± 0.004 s⁻¹.

Question: And the kcat/Km (purified protein [5])?
Answer: The kcat/Km was 4.9 M⁻¹ s⁻¹.

Question: What about the Km (purified protein [6]) of the same molecule?
Answer: The Km was 690 ± 50 µM.

Question: What about the Vmax (purified protein [6]) of the same molecule?
Answer: The Vmax was 27.6 µmol/min/mg.

Question: And the kcat (purified protein [6])?
Answer: Its kcat is 24.2 ± 3.7 s⁻¹.

Question: And the kcat/Km (purified protein [6])?
Answer: The kcat/Km was 35000 M⁻¹ s⁻¹.

Question: And the Km (purified protein [7])?
Answer: The Km was 1200 ± 220 µM.

Question: What about the Vmax (purified protein [7]) of the same molecule?
Answer: The Vmax was 0.4 µmol/min/mg.

Question: What about the kcat (purified protein [7]) of the same molecule?
Answer: Its kcat is 0.35 ± 0.05 s⁻¹.

Question: What about the kcat/Km (purified protein [7]) of the same molecule?
Answer: Its kcat/Km is 290 M⁻¹ s⁻¹.

Question: What about the Km (purified protein [8]) of the same molecule?
Answer: The Km was 19000 ± 1900 µM.

Question: And the Vmax (purified protein [8])?
Answer: Its Vmax is 11.1 µmol/min/mg.

Question: And the kcat (purified protein [8])?
Answer: Its kcat is 9.7 ± 0.4 s⁻¹.

Question: And the kcat/Km (purified protein [8])?
Answer: The kcat/Km was 510 M⁻¹ s⁻¹.
